The series can be described thus: label from the status in PepcDB records.
In the case of “MSSFRSAWAGAPAGIAVARTGQSVPLLNAAAALAVAMAVGGWLSGARHASAIDATQIESWRAMVAQAMEPQALRQLRQLARGGSTPARTALGEALLDSRDASLRHEGVRWLEAAAQPADGAPGDARAQLALGKALLLGTGGVARDYPRALHLLRQAADRGDAAAAYYLGLMYRSGYGTAANTALAAHWFDGAARHGIPAAMFMLANAYRDGDGVPRDEARALALYEQAAEHELPEAVQALAMAYQNGELGLARDDAAFRKQWLETAHALKHPALTP”, the protein production result is recorded as “failed”. Turning to “MSSFSLAVRDSSTMLRRNLLHARRYPSLTLNLLLTPVMLLLLFVYIFGDTMSGGAGRSAYIAYIVPGILLMTIGSTTIGTAVSVSTDMNEGIIARFRTMAIHRSSVLFGHVAGSVLQAIMSVVLVGAVGVAMGFRSTDATVLEWLAAFGLLALFALAFTWIAVGMGLGSPNAEAASNNAMPLILLPLISSAFVPLDSMPGWFQPIAEYQPFTPAIETLRGLLLGTEIGNNWWIALAWCLGLTVLGHRWSKAQFNRDPK”, the protein production entry was “failed”. As to “MSSKQWRWIPNALTFLRMVLIVPFAGALLEGNYRLSLVIFFVAALTDAFDGFLARHFNWRSRLGAVADPLADKALLISAYLMLTITGVLPLWLFALVLGRDLVIVCGGLAFHYGIGRFDMEPSIPGKINTFVQILVALAIIILLAGLPMQPWVIDTGIWLVAVSALVSGGHYVAVWSLRAWRAKRS”, the protein production result is on record as “failed”. As for “MSSKRLVIVGGGITGLAAAYYAERAFPDLNITLLEAGERLGGKVATYREDGFTIERGPDSYVARKHILTDLIEAIGLGEKLVRNNTSQAFILDTGGLHPIPKGAVMGIPTDLDLFRQTTLLTEEEKQEVADLLLHPSDSLRIPEQDIPLGEYLRPRLGDALVEKLIEPLLSGIYAGNIDQMSTFATYPQFVANEQKAGSLFEGMRLMRPLDQLPQTPQTTIKATGQFLSLETGLESLIERLEEVLERSEIRLETPLLAISREDGRYRLKTDHGPEYADYVLLTIPHPQVVQLLPDAHLPELEQLTTHSTATVTMIFDQQQSLPIEGTGFVVNRRAPYSITACTAIDQKWNHSAPDHTVLRAFVGRPGNDHLVHESDEVLQQAVLQDLEKICGRTLEPKQVIISRLMDGLPAYTVGHADRIQRVREEVLAQYPGIYLAGLAYDGVGLPDCVASAKTMIESIELEQSHTDESVNET”, the protein production result is listed as “not failed”.

For the sequence “MSSLALRSPALALALTLGGLLLCGPVQAQQANSANDMVGRMQYRISELERLVQDLTGKVEQSLYENRQLQTKLENAQSDIDFRLNALESAGPAAAAPANSVPSSARPTASAGAGKQGTPAPAEGVLGFPGKTAPAQGAASAARPAAAGALPAGSENDQYNYAFSLLRNADYPAAEQAFKAFLDQHPKGSLAGNAQYWLGETYYVRGDYEQAAVAFMGGYQSHPDSSKGPDNLLKLGLAMANLGKSKEACAAFGRLESQYPKAADAIKRRAKEGMSKLGC”, the protein production entry is on record as “failed”. Turning to “MSSLGSRSSTSIQPVILCGGSGTRLWPLSRQSYPKQFMPLLGGRSLLALTLERVSGLSSHPWCVASTEHRFLVIDAFEQCQLNGQVLLEPSARNTAAAIAVAALHAEDDALLLFCPADHYIPDAPAFVERVRQAQVAALDGALVTFGVFPTYPSSAYGYIEASAPWQDSGALHVQRFIEKPSATQAAELLLKGNMYWNAGIFLGLAREWRRALELHAPDILAACRDALREAESPVISRSGQTTVQSVVLHEPSFDACRSQSIDYAVMEHHRPICAVPFNGAWSDVGSWNAVADLSSADDKGNSSQGDAHLFDCQRTYVHAAGRRPVVALGLEDVCIVDTDDAVLVMPMSRAEDIKSVVGQLTDRSVAQALLHRRVARPWGWYDSLDQGERFQVKRIGVKPGASLSLQLHHHRAEHWTVVKGTAEITCGDRVFLLSENQSTYIPLGQRHRLHNPGKVELEIIEVQSGSYLAEDDIVRLEDNYGRTAPHCPGPAEADSTLIEQ”, the protein production entry was “failed”. Regarding “MSSLKDNYQSKVKAYQPSPPYVLNCIKAFLVGGLICTIGQAFQNFYMAVFHFDEKTAGNPTVATLILISALLTGLGVYDRIGQFAGAGSAVPVTGFANSMTSAALEHKSEGYVLGVGTNMFKLAGNVIVFGVVAAYIVGMIRFAFDKLF”, the protein production result was “failed”. The entry for “MSSLLPEKWGEALERVHDKVGHFLTRVMPWKKQEHFPERITADTLPAFMQSGGPLLDMHETADELIIRAEVPGLKNDDFSVGIVGRRLTIKGEKNIVRERKGGDGCLISECRYGSFARTLQLPYEIDEKAIAADLKHGVLTIRLPKPEKGRHARYRVPIS” is “failed”; for “MSSLMIKLNLNYKLITKKTLPKLFYWGLGIVFFFLAPTTNAGSLSPYTTKELEQLEREFIQLINQSDSVERNPLASQYINSIGKKLAHYGRIKTPYFFIVKSKEINAFAGPGGYIGINTQLILTSSNESELAAVMAHEIAHVRLHHLYSIIEHQKQMRVPLLASILASAALGVLNPTVGMGAMMASVSGFSQDNINFTRSKEKEADRIGIDMLIKAGFNPQGMAAFFNKMQENSRYYYTANIPAILRTHPLDADRIAEAENRTSRLPKKHYTDSLDYALFKELIRVSVASNNKQILDYYEHHCHKKNPATACQYGYVLALLNNNNFQKAAEKLNPLLLQDNSNLNFQIAMAQAELGLSQYQSALSRLAELQNNFPDNYAALMAYAQGLLTANQPQKATAVLLKGSRQYKEDLPLCRELARAQAESHQKSYAYFTQAQCLLLEGQKRGAIAQLKVAQKLAKRDAYLSARISAKIDEIKFMVENLEHHHHHH” it is “failed”.

For “MSSLNIKQGSDAHFPDYPLASPSNNEIDLLNLISVLWRAKKTVMAVVFAFACAGLLISFILPQKWTSAAVVTPPEPVQWQELEKTFTKLRVLDLDIKIDRTEAFNLFIKKFQSVSLLEEYLRSSPYVMDQLKEAKIDELDLHRAIVALSEKMKAVDDNASKKKDEPSLYTSWTLSFTAPTSEEAQTVLSGYIDYISALVVKESIENVRNKLEIKTQFEKEKLAQDRIKMKNQLDANIQRLNYSLDIANAAGIKKPVYSNGQAVKDDPDFSISLGADGIERKLEIEKAVTDVAELNGELRNRQYLVEQLTKANINDVNFTPFKYQLSPSLPVKKDGPGKAIIVILSALIGGMVACGSVLLRYAMASRKQDAMMADHLV”, the protein production entry was “not failed”. As to “MSSLNNEEWDLLISGKKATLQYPIPLLCYPAPEVVSIAQIIDHTQLSLSATGSQIDVLCAEAKEYGFATVCVRPDYVSRAVQYLQGTQVGVTCVIGFHEGTYSTDQKVSEAKRAMQNGASELDMVMNYPWLSEKRYTDVFQDIRAVRLAAKDAILKVILETSQLTADEIIAGCVLSSLAGADYVKTSTGFNGPGASIENVSLMSAVCDSLQSETRVKASGGIRTIEDCVKMVRAGAERLGASAGVKIVNETRLGNRQVDEPMEPTNY”, the protein production entry is given as “not failed”. The entry for “MSSLQGGISLTHIAAGIAVVALIILGVGFYAIYQELASLRSQVEGLNTRYEEISESLEEVQGAFESSRGDIESIASSLESIQDRVSKIEERLGSAATQSDLDAVARELASLTQQLEDLQARIQALEESGAEAGERLDQLAMALQDLQARLASLEERVDEVYASLYFPVTVVDGTGTPVVILERPERIVSMAPSATETLYYVGALDRVVGVDQYSDFPPELNEAKEAGEVEVIGGYWNPSIEAILSLEPDLVVGVASVPNHIQVKKVLSAYGIPVILLPDSSLEDVRESMMIVGKATGEVVGAYEAVLKFDMAVAAAGLLLEGVEPVETAVVVWPNPLFVVGGGTWEHEVIELAGGVNVYGDTQGWPQVSYESLLEADPDVIILMGGHGNSGVTVEGFIEALESQLGEAAWEIDAVASGRIYVLLDEYNDSFARPSPRTVLSIYVLAVLIQPSAFDIQPGDLPSEVSPETLDVLGLLEGRVPEEVLEFLGEALG” is “failed”. Under “MSSNNINSIISKIQQKNTATVITVGNYKGGAGKTTNVVLLAYKLAKKGLKVCVLDLDPQSNATKSLLLTKSSLYQDEVVTIEKTLMTGISEKNLDGLEVKIMDNLYLLPSYIDFEDFPKYLYKNTSNQREEDYYLKNIFTPLQGKYDIVLIDVPPMSKAVTRNAVICSDYVLISLQTHERSLSGAESYVEELNKLHNEYDLDLEVVGVLPVIHKNNGSVDQYVMEVAKETFGEDNLFENVVPQMERIKRFDVNGITDKDRHDQKVLNLYDKVSDELLDRINYFEEEKEGAING” stands “not failed”; under “MSSPLVLPSDGHYWLKNAHIPPNLVKTKVNFPENFQFPRPWEDLGLYHLEIADGKIKNIVAVGQGEESDLVTDDGVPRVDLSKRMILPCFVDMHTHLDKGHIWGRSPNVDGTFSGAIASTERDAELHHSPEDIYRRMEFALQCSYAHGTAAVRTHIEMAGQKSQIAWQTFQQLRQAWADRLTLQGVAMVTTDYYLGSAGEKLADQMAHGGGILGGVAYAGPQVEAQLTRLMTLAQARNLAIDLHVDENGDRRSRVLHQVAAIALKVGFTGQIVCGHCCSLDVQSPQQVQQTLALVKQANIAIISLPLCNLYLQGRHQPQKPAWRGITKVHAIHAEGIPLVFASDNCRDPFFPFGDHDGLEILNQSVRIGQLDPPYGHWCATVNQTPAQLMGLADYGRLAVNGPADLVIFPARYFSEIFSRPQGDRLVIRKGKPTHKKTPHYQELDDLMGA”, “failed”; under “MSSPVVEIQIWSDLICPWCWIGKRRLERALRNSSLFADIKVRHRAFRLMPELIPLPVIDVLQQRYGGSAEQIVAIQQRIEKIAAEESLIYRLVGTQGADTLQAHRLLYLAHRQGLQEVLLERFYSAYFSEGTPIFDTDTLAPLALDVGLERTAVAALFAGQDFIAEIEDDQRRLQRYGANGVPFFLMDGRIAVNGAQPIEAFSDALAQLNADAASQSAFFLR”, “failed”. On to “MSSSSDAPLVATRWVEIGLALFTAALGAIVMYGSQDIGIGWGDSGPEAGYFPFYIGLLLSAASLGNLLLALCRWRALGTSFVARTAFRRVLAVFLPIAAYVAAMPFAGIYLASALFIAWFMWRDRSRDKPYGVPLIVTLSCGAALASYLVFAVWFKVPLDAGILVDLAAFVGSARP”, for which the protein production entry is “failed”. Regarding “MSSSSGNQNSKEHKVAVTHDLGKTNVPEHPKRVVVLELGFIDTLLDLGITPVGVADDNKAKQLINKDVLKKIDGYTSVGTRSQPSMEKIASLKPDLIIADTTRHKKVYDQLKKIAPTIALNNLNADYQDTIDASLTIAKAVGKEKEMEKKLTAHEEKLSETKQKISANSQSVLLIGNTNDTIMARDENFFTSRLLTQVGYRYAISTSGNSDSSNGGDSVNMKMTLEQLLKTDPDVIILMTGKTDDLDADGKRPIEKNVLWKKLKAVKNGHVYHVDRAVWSLRRSVDGANAILDELQKEMPAAKKLEHHHHHH”, the protein production result is given as “failed”. Regarding “MSSSSSKIVVYAALVGNLLIALSKFIAAYFTNSAAMLSEAIHSVVDSLNEILLLYGLKKSQKPANYRHPFGYGRELYFWAFIVALLVFALGAVVSIYQGVSHILQPEEMKYPLVNYLVLGFAILCEGASWWVAVKNFKKMKGSLGYFEAFKRSKDPTTFTVLFEDSAALIGLIIALIGITAAQFLQIPILDGVASVLIGVVLAVSAFLLARETKGLLLGETADPELRKNVLRIAQDDEAVYSANGVLTEQIGAHQVIASLSLEFKDGLISDEIENCVNRIEAQIKQIHPEIVALFIKPQSNEVWLERMKGRLNQQNGEIVAAKVK”, the protein production entry is listed as “failed”. The entry for “MSSSSVIMDFLKYSPQPLQLITRPRHSIHHSTLRSSRRLTTSHNHSTPRSSSSHHHFSPSLDPVAEHHHHQSLDRTLDLVVESPHHHSLDPSLCHQVEFHHHPPLDIILDCQLQSLLDSAINKTLEHKEEMKTLARHSTHYLITWVEYHS” is “failed”; for “MSSVINYEKFEKIDISSSDDDNKKKLNPHLTKLDNKDKVVIGPNGLTILKNNNDEKIKHDKYNNTSKNVEEIKDKNDEYKTIYNETNNEILNNKNDNIHVQNMNNYVADDKKYKDMFINGAVVPYEYIWNQSIHYINAFICLPLNCKAKNLIVDIKEDKLIVKIKNYKCGIIYNNNNNNNKTNQHNTQSNSFHDNVEILVDKKFPFKINTDEDTQIWEIKNMQINWYTLFNLSNEINNQNVHYLFEDYNMLDKQETFLYISVKKINEIENAYIWWSTLFKNEHPIKIENLPSRSSTNKAKKTMNSFKTAWDEAHEIFKKNISMKQLPFRIDSS” it is “failed”.
